The text below walks through data of PMC9976877, “The Ku complex promotes DNA end-bridging and this function is antagonized by Tel1/ATM kinase”.

The target of data set [1] is T1, Ku70 C85Y-Strep;Ku80-6xHis (Saccharomyces cerevisiae;Saccharomyces …, UniProt P32807;Q04437 1-602;1-629, C85Y|).
T1 sequence 1: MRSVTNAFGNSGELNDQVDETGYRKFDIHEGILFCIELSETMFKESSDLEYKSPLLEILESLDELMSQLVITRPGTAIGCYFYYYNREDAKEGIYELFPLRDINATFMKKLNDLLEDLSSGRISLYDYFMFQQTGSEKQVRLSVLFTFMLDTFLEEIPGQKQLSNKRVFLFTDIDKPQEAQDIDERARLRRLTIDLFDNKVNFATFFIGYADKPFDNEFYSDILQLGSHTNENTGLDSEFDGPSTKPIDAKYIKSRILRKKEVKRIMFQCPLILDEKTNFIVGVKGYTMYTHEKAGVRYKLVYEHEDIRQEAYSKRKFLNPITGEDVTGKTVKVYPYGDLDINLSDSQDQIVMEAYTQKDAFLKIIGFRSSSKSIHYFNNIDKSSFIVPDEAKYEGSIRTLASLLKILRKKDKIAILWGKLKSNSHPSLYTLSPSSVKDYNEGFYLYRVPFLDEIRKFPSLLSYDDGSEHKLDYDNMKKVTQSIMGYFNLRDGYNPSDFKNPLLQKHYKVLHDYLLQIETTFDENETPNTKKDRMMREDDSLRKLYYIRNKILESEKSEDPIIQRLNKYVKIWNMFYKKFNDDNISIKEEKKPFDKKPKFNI
T1 sequence 2: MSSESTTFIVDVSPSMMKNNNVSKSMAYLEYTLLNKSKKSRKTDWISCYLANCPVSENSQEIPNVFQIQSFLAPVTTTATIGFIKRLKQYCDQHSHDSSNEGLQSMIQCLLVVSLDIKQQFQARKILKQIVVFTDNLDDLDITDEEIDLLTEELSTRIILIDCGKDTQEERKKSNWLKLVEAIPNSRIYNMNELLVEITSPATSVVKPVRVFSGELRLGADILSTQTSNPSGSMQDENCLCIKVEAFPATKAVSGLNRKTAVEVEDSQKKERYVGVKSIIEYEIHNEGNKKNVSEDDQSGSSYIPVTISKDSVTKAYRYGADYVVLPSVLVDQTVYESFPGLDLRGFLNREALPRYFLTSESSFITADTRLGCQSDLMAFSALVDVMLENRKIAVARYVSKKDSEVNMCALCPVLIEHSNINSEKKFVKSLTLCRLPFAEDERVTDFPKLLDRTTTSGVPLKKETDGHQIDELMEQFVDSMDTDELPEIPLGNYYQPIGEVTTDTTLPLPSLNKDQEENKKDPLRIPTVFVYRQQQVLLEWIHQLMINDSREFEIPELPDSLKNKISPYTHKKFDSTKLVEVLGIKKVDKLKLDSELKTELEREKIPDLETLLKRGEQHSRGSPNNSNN
In words: EMSA; 13 nM DNA; 0-104 nM Ku; shift detectable at 2-fold ratio of Ku to DNA (stronger than wild type); 2 mM MgCl2; EMSA: 25 mM Tris/HCl pH 7.5, 100 mM NaCl, 2 mM MgCl2, 7% glycerol, 1 mM DTT, 30 min on ice; 6% native gel at 4 °C. The note with it: protein: recombinant;recombinant; tags: Strep;6xHis; copies: 1;1; label: 32P; blunt.

For data set [2], the target named is T2, Ku70-Strep (wild type);Ku80-6xHis (Saccharomyces cerevisiae;Saccharomyces …, UniProt P32807;Q04437 1-602;1-629, |).
T2 sequence 1: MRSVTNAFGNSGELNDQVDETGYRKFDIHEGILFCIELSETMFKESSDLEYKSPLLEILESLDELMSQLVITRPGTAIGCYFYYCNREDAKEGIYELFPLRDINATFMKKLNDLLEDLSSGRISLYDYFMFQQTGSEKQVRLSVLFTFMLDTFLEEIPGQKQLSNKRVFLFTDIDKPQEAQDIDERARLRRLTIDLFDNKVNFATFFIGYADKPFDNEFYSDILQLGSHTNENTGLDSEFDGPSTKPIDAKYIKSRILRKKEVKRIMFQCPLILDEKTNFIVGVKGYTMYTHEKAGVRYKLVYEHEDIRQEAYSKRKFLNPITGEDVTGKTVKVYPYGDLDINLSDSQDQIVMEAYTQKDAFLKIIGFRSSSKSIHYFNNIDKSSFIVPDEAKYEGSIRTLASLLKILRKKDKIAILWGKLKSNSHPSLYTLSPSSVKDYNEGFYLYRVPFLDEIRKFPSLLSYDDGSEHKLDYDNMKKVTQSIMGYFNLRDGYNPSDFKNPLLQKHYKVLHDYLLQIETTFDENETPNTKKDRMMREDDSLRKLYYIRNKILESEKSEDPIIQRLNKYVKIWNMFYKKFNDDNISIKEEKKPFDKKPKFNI
T2 sequence 2: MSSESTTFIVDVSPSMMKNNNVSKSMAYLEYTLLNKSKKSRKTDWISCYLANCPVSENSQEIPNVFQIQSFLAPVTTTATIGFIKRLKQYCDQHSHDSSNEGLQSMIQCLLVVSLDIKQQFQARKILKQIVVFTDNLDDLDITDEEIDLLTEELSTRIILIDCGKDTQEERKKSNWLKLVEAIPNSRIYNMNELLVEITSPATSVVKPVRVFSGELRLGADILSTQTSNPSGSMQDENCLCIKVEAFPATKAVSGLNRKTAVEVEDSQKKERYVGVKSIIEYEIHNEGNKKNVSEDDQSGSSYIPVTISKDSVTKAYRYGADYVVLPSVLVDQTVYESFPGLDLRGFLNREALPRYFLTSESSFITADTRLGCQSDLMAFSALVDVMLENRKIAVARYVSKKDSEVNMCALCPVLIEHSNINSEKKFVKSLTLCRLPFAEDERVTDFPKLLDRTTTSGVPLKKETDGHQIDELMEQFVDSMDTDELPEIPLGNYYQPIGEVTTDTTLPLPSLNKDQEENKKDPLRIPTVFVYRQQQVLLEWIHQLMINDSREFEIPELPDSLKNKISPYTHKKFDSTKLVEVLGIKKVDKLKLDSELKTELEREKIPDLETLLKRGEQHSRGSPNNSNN
In words: EMSA; 13 nM DNA; 0-104 nM Ku; shift detectable at 4-fold ratio of Ku to DNA; 2 mM MgCl2; EMSA: 25 mM Tris/HCl pH 7.5, 100 mM NaCl, 2 mM MgCl2, 7% glycerol, 1 mM DTT, 30 min on ice; 6% native gel at 4 °C. The note with it: protein: recombinant;recombinant; tags: Strep;6xHis; copies: 1;1; label: 32P; blunt.

B1: 21 bp blunt-ended dsDNA (dsDNA)
DNA 1: CCGCACACCCACACACCAGTG
DNA 2: CACTGGTGTGTGGGTGTGCGG
With B1, the binding result in data set [1] and in data set [2] was “binds” throughout.
